# Reference: article doi:10.1101/2024.10.24.620072
# How the values were obtained:
# [1] = target: human (H3-H4)2 tetramer (human) (UniProt P68431); assay: MST
# [2] = target: fluorescently labeled H2a(G129C)-H2b dimer (human) (UniProt P04908); assay: MST
substance,measurement,setting,value
"human α-Synuclein, full-length (from UniProt P37840 1-140) (natural protein)",Kd,[1],50 nM
αSyn(1-103) (from UniProt P37840 1-103) (domain or fragment),Kd,[1],107 nM
αSyn(1-131) (from UniProt P37840 1-131) (domain or fragment),Kd,[2],32.4 µM
αSyn(121-140) peptide (from UniProt P37840 121-140),KD of one of two binding sites,[2],0.5 µM
same,KD of the other of two binding sites,[2],2.6 µM
